The values that follow come from publication PMC13254101.

Assay [1] has as its target CrAPE1_(C128S), recombinant soluble domain of Chlamydomonas APE1 with C128S (Chlamydomonas reinhardtii). The assay can be described thus: SEC-MALS.
Assay [2] has as its target CrAPE1_(C247S), recombinant soluble domain of Chlamydomonas APE1 with C247S (Chlamydomonas reinhardtii). Briefly: SEC-MALS.

In the case of “CrAPE1_(C128S), recombinant soluble domain of Chlamydomonas APE1 with C128S (domain or fragment)”, the stoichiometry N in assay [1] came out at 2.

In the case of “CrAPE1_(C247S), recombinant soluble domain of Chlamydomonas APE1 with C247S (domain or fragment)”, the stoichiometry N in assay [2] turned out to be 2.
